± gives the uncertainty stated by the source.
B1: Syntaxin-binding protein 4, residues 493 to 538; numbered along this chain, Q6ZWJ1 (parent)
chain: LDMDCLPYGWEEAYTADGIKYFINHVTQTTSWIHPVMSVLNLSRSE

Variants of: B1
Experiment: abundance fitness (aPCA) (normalised: wild type 0, dead -1); higher = more abundant; growth selection in yeast, the domain comes from the species named
Settings: Homo sapiens

P35R and P35E are within error of each other in abundance fitness: -0.88 ± 0.097 for the first, -0.634 ± 0.15 for the second.

Compared with A16Y, A16D is higher in abundance fitness: -0.606 ± 0.1 for the first, -0.029 ± 0.1 for the second.

First: V36Q
Second: V36W
The abundance fitness of the first is higher: 0.391 ± 0.1 for the first, -0.424 ± 0.12 for the second.

Going from M3N to M3G, the abundance fitness falls from 0.354 ± 0.1 to -0.084 ± 0.075.

Compared with M3A, W32S is lower in abundance fitness: -0.058 ± 0.078 for the first, -0.679 ± 0.11 for the second.

W32H and W32A are within error of each other in abundance fitness: -1.09 ± 0.29 for the first, -0.787 ± 0.11 for the second.

First: W32T
Second: W32D
The abundance fitness of the first is lower: -0.872 ± 0.15 for the first, -0.539 ± 0.16 for the second.

Going from W32G to T30S, the abundance fitness rises from -0.664 ± 0.089 to 0.363 ± 0.086.

Going from T30Y to T30L, the abundance fitness rises from -1 ± 0.32 to -0.512 ± 0.096.

T30P and N41V are within error of each other in abundance fitness: -0.857 ± 0.17 for the first, -0.694 ± 0.098 for the second.

N41S and V39A are within error of each other in abundance fitness: -0.227 ± 0.09 for the first, -0.135 ± 0.095 for the second.

Compared with V39Y, V39E is higher in abundance fitness: -0.851 ± 0.26 for the first, 0.144 ± 0.098 for the second.

First: V39D
Second: N24P
The abundance fitness of the first is higher: 0.466 ± 0.11 for the first, -0.837 ± 0.17 for the second.

N24G and N24E are within error of each other in abundance fitness: -0.72 ± 0.092 for the first, -0.715 ± 0.14 for the second.

Going from T27K to T27E, the abundance fitness falls from -0.045 ± 0.13 to -0.672 ± 0.13.

Y21V and Y21D are within error of each other in abundance fitness: -0.998 ± 0.11 for the first, -0.989 ± 0.18 for the second.

First: Y21Q
Second: Y21H
The abundance fitness of the first is higher: -0.544 ± 0.13 for the first, -1.05 ± 0.22 for the second.

Y21I and Y21S are within error of each other in abundance fitness: -0.894 ± 0.36 for the first, -0.778 ± 0.11 for the second.

D2R and D2S are within error of each other in abundance fitness: -0.603 ± 0.09 for the first, -0.478 ± 0.096 for the second.

D2L and D2V are within error of each other in abundance fitness: -0.424 ± 0.093 for the first, -0.576 ± 0.086 for the second.

First: L42E
Second: L42A
The abundance fitness of the first is higher: 0.198 ± 0.1 for the first, -0.05 ± 0.088 for the second.

L42Y and Y14A are within error of each other in abundance fitness: -0.876 ± 0.21 for the first, -0.645 ± 0.09 for the second.

Y14H and Y14T are within error of each other in abundance fitness: -0.575 ± 0.11 for the first, -0.522 ± 0.1 for the second.

Compared with Y14G, Y14R is higher in abundance fitness: -0.773 ± 0.087 for the first, -0.389 ± 0.075 for the second.

Going from Y14W to Y14L, the abundance fitness falls from -0.271 ± 0.086 to -0.689 ± 0.083.

T15N and T15V are within error of each other in abundance fitness: -0.806 ± 0.14 for the first, -0.862 ± 0.094 for the second.

R44V and R44K are within error of each other in abundance fitness: -0.147 ± 0.085 for the first, -0.162 ± 0.14 for the second.

R44N and I33H are within error of each other in abundance fitness: -0.104 ± 0.14 for the first, -0.084 ± 0.14 for the second.

First: I33R
Second: I33T
The abundance fitness of the first is lower: -0.481 ± 0.094 for the first, -0.075 ± 0.12 for the second.

First: Y8L
Second: Y8E
The abundance fitness of the first is lower: -0.367 ± 0.082 for the first, 0.326 ± 0.084 for the second.

Y8K and M37H are within error of each other in abundance fitness: 0.109 ± 0.095 for the first, -0.15 ± 0.17 for the second.

Compared with M37F, M37G is higher in abundance fitness: -0.292 ± 0.18 for the first, 0.059 ± 0.08 for the second.

First: M37C
Second: W10R
The abundance fitness of the first is higher: 0.056 ± 0.11 for the first, -0.863 ± 0.083 for the second.

W10Q and W10Y are within error of each other in abundance fitness: -0.613 ± 0.11 for the first, -0.774 ± 0.15 for the second.

First: H25V
Second: H25N
The abundance fitness of the first is lower: -0.67 ± 0.11 for the first, 0.599 ± 0.34 for the second.

H25G and H25F are within error of each other in abundance fitness: -0.687 ± 0.091 for the first, -0.514 ± 0.35 for the second.

H25E and L1R are within error of each other in abundance fitness: -0.502 ± 0.13 for the first, -0.874 ± 0.5 for the second.

L1Y and L1W are within error of each other in abundance fitness: -0.198 ± 0.21 for the first, -0.334 ± 0.15 for the second.

L1G and H34I are within error of each other in abundance fitness: -0.525 ± 0.21 for the first, -0.724 ± 0.19 for the second.

H34R and H34D are within error of each other in abundance fitness: -0.488 ± 0.082 for the first, -0.54 ± 0.24 for the second.

H34F and A13H are within error of each other in abundance fitness: -1.14 ± 0.31 for the first, -1.01 ± 0.17 for the second.

A13T and A13R are within error of each other in abundance fitness: -0.527 ± 0.11 for the first, -0.501 ± 0.08 for the second.

First: A13Y
Second: I19A
The abundance fitness of the first is lower: -0.914 ± 0.21 for the first, 0.708 ± 0.078 for the second.

Going from I19E to I19G, the abundance fitness falls from 1.09 ± 0.082 to -0.062 ± 0.073.

I19D and I19S are within error of each other in abundance fitness: 0.771 ± 0.1 for the first, 0.634 ± 0.083 for the second.

D17C and D17A are within error of each other in abundance fitness: -0.873 ± 0.12 for the first, -0.69 ± 0.11 for the second.

D17Q and D17V are within error of each other in abundance fitness: -0.571 ± 0.14 for the first, -0.648 ± 0.097 for the second.

D17N and E12T are within error of each other in abundance fitness: -0.548 ± 0.12 for the first, -0.518 ± 0.1 for the second.

E12S and E12H are within error of each other in abundance fitness: -0.619 ± 0.093 for the first, -0.795 ± 0.17 for the second.

Compared with E12Q, E12G is lower in abundance fitness: -0.463 ± 0.12 for the first, -0.818 ± 0.083 for the second.

S31N and S31D are within error of each other in abundance fitness: -0.953 ± 0.19 for the first, -0.89 ± 0.19 for the second.

First: S31I
Second: S31T
The abundance fitness of the first is lower: -0.633 ± 0.16 for the first, 0.199 ± 0.09 for the second.

Compared with S31A, S38K is higher in abundance fitness: -0.799 ± 0.12 for the first, -0.479 ± 0.11 for the second.

S38I and S38T are within error of each other in abundance fitness: -0.845 ± 0.23 for the first, -0.75 ± 0.13 for the second.

Going from T29L to L40Q, the abundance fitness rises from -0.969 ± 0.12 to 0.046 ± 0.11.

Compared with L40R, P7A is lower in abundance fitness: -0.003 ± 0.082 for the first, -0.646 ± 0.091 for the second.

P7R and P7V are within error of each other in abundance fitness: -0.782 ± 0.094 for the first, -0.742 ± 0.088 for the second.

P7K and P7E are within error of each other in abundance fitness: -0.649 ± 0.13 for the first, -0.711 ± 0.098 for the second.

P7W and P7L are within error of each other in abundance fitness: -0.629 ± 0.099 for the first, -0.711 ± 0.095 for the second.

P7T and E46K are within error of each other in abundance fitness: -0.483 ± 0.12 for the first, -0.478 ± 0.4 for the second.

E46L and E46S are within error of each other in abundance fitness: -0.668 ± 0.37 for the first, -0.582 ± 0.49 for the second.

First: E46R
Second: L6H
The abundance fitness of the first is higher: -0.132 ± 0.2 for the first, -0.844 ± 0.22 for the second.

Going from L6N to L6R, the abundance fitness falls from -0.375 ± 0.16 to -0.644 ± 0.088.

L6K and S43P are within error of each other in abundance fitness: -0.266 ± 0.11 for the first, -0.064 ± 0.12 for the second.

S43L and S43K are within error of each other in abundance fitness: -0.698 ± 0.14 for the first, -0.846 ± 0.23 for the second.

First: S43D
Second: C5F
The abundance fitness of the first is higher: 0.129 ± 0.12 for the first, -0.11 ± 0.11 for the second.

C5E and C5D are within error of each other in abundance fitness: 0.234 ± 0.094 for the first, 0.321 ± 0.12 for the second.

Going from Q28P to Q28F, the abundance fitness rises from -0.793 ± 0.14 to -0.422 ± 0.14.

Going from Q28V to Q28M, the abundance fitness rises from -0.789 ± 0.098 to 0.031 ± 0.14.

Going from Q28G to Q28W, the abundance fitness falls from 0.294 ± 0.075 to -0.695 ± 0.13.

I23M and I23G are within error of each other in abundance fitness: -0.733 ± 0.18 for the first, -0.889 ± 0.092 for the second.

Going from G18K to G18T, the abundance fitness falls from -0.453 ± 0.12 to -0.949 ± 0.13.

First: G18V
Second: D4R
The abundance fitness of the first is lower: -0.867 ± 0.095 for the first, -0.545 ± 0.083 for the second.

Compared with D4E, K20N is lower in abundance fitness: -0.16 ± 0.1 for the first, -0.54 ± 0.19 for the second.

K20A and K20W are within error of each other in abundance fitness: -0.699 ± 0.089 for the first, -0.686 ± 0.1 for the second.

K20F and K20D are within error of each other in abundance fitness: -0.919 ± 0.17 for the first, -0.743 ± 0.14 for the second.

Compared with G9D, G9K is lower in abundance fitness: -0.604 ± 0.086 for the first, -0.807 ± 0.11 for the second.

E11H and E11W are within error of each other in abundance fitness: -0.657 ± 0.15 for the first, -0.696 ± 0.09 for the second.

Compared with E11A, E11D is higher in abundance fitness: -0.747 ± 0.091 for the first, -0.528 ± 0.11 for the second.

Compared with E11T, V26F is higher in abundance fitness: -0.733 ± 0.1 for the first, -0.294 ± 0.15 for the second.

Going from V26W to V26S, the abundance fitness rises from -0.846 ± 0.12 to -0.07 ± 0.098.

Going from S45W to S45V, the abundance fitness rises from -0.914 ± 0.22 to -0.103 ± 0.11.

Compared with S45E, S45Y is lower in abundance fitness: 0.092 ± 0.18 for the first, -0.287 ± 0.13 for the second.

For F22C, the abundance fitness was -0.659 ± 0.12.

From the Human Domainome abundance scans (Beltran et al. 2025)
